Experimental data published in article PMC8203498.

Biological target: recombinant human protease-activated receptor 1 with GST tag (GST-PAR1) (human) (UniProt P25116)
Test: SPR; BIAcore X100; GST-PAR1 (10 ug/mL) captured on anti-GST antibody immobilised on a CM5 chip (about 854 RU); running buffer 50 mM Hepes pH 7.0, 0.01% CHS, 0.1% CHAPS, 0.33 mM DOPC:DOPS; captured GST as blank; analytes injected at 125 to 1000 nM, 30 uL/min; single site model

With GARASVLSGGELDRWEKIRL [F1 peptide (p17 N-terminal sequence, aa 2 to 21)] the Kd was 46 nM.
